From patent US20260069689A1 (Regeneron, published 2026)

Experiments:
[1] = target: T1, SARS-COV-2 RBD extracellular domain expressed with a C-terminal mouse IgG2a Fc (SARS-CoV-2); assay: Biacore SPR, mAb captured on anti-hFc, 37 C
[2] = target: T1, SARS-COV-2 RBD extracellular domain …; assay: Biacore SPR, mAb captured on anti-hFc, 25 C

B1: mAb14315 (antibody, V domains shown)
VH: QVQLVQSGAEVKKPGSSVKVSCKASGDTFSTYAINWVRQAPGQGLEWMGRFIHIFGTANYAQKFQGRVTITADESTSTAYMELRSLRSEDTAVYYCARDGVDYGDYRPDYWGQGTLVTVSS
VL: EIVLTQSPGTLSLSPGERATLSCRASQSVSSNYLAWYQQKPGQAPRLLIYGASSRATGIPERFSGSGSGTDFTLTISRLEPEDFAVYYCQQYGSSLYTFGQGTKLEIKR
Kd [1]: 90.3 pM
koff [1]: 7.91e-05 s⁻¹
kon [1]: 877000 M⁻¹ s⁻¹
t½ [1]: 2.43 h
Kd [2]: 78.4 pM
koff [2]: 6.26e-05 s⁻¹
kon [2]: 799000 M⁻¹ s⁻¹
t½ [2]: 3.07 h

B2: mAb14257 (antibody, V domains shown)
VH: EVQLVESGGGLVQPGGSLRLSCAASGFTVSRSYMNWVRQAPGKGLEWVSVVFTGGTTKHTDSVKGRFTISRDNSMNTLYLQMNSLRPEDTAVYYCARVAIVETTGAFDIWGQGTMVTVSS
VL: QSVLTQPPSVSGAPGQRVTISCTGTSSNIGADFDVHWYQQFPGTAPKLLIYGHTNRPSGIPDRFSGSKSGTSASLAITGLQAEDEADYYCQSYDSSLSGSVVFGGGTKLTVLG
Kd [1]: 121 pM
koff [1]: 0.000339 s⁻¹
kon [1]: 2.81e+06 M⁻¹ s⁻¹
t½ [1]: 0.568 h
Kd [2]: 90.7 pM
koff [2]: 0.000254 s⁻¹
kon [2]: 2.81e+06 M⁻¹ s⁻¹
t½ [2]: 0.757 h

B3: mAb14255 (antibody, V domains shown)
VH: QVQLQESGPGLVKPSETLSLTCTVSGGSISGYYWSWIRQPPGKGLDWIGYIYYRGNTNYNPSLKSRVTISVDTSNNQFSLKLSSVTAADTAVYYCARYGEGYGDASGYHFDYWGQGTLVTVSS
VL: QSALTQPASVSGSPGQSITISCTGTSSDVGSYNLVSWYQQHPGKAPKLMIYEDSKRPSGVANPFSGSKSGNTASLTISGLQAEDEADYYCSSYAGSSTWVFGGGTKLTVLG
Kd [1]: 118 pM
koff [1]: 0.00025 s⁻¹
kon [1]: 2.12e+06 M⁻¹ s⁻¹
t½ [1]: 0.77 h
Kd [2]: 72.6 pM
koff [2]: 0.000159 s⁻¹
kon [2]: 2.19e+06 M⁻¹ s⁻¹
t½ [2]: 1.21 h

B4: mAb14313 (antibody, V domains shown)
VH: EVQLVESGGGLVQPGRSLRLSCVASGFTFDDSAMHWVRQPPGKGLEWVSGISWNSGIIGYAESVKGRFIISRDNAKNSLFLHMRGLRPEDTAVYYCARDRLELSYYYYGMDVWGQGTTVTVSS
VL: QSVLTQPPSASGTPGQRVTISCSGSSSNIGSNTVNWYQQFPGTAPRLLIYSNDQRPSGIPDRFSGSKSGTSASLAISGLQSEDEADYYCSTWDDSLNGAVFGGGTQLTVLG
Kd [1]: 58.2 pM
koff [1]: 0.000146 s⁻¹
kon [1]: 2.52e+06 M⁻¹ s⁻¹
t½ [1]: 1.32 h
Kd [2]: 42.2 pM
koff [2]: 9.97e-05 s⁻¹
kon [2]: 2.36e+06 M⁻¹ s⁻¹
t½ [2]: 1.93 h

B5: mAb13458 (antibody, V domains shown)
VH: EVQLVESGGGLVQPGRSLRLSCAASGFTFDDYAMHWVRQAPGKGLEWVSGISWNSGSIGYADSVKGRFTISRDNAKNSLYLQMNSLRAEDTALYYCAKDIGITTPYWGQGTLVTVSS
VL: AIQMTQSPSSLSASVGDRVTITCRASQDIRNDLGWYQQKPGKAPKLLIYSASSLQTGVPSRFSGSGSGTDFTLTISSLHPEDFATYYCLQDYWYTWTFGQGTKVEIKR
Kd [1]: 78.4 pM
koff [1]: 9.12e-05 s⁻¹
kon [1]: 1.16e+06 M⁻¹ s⁻¹
t½ [1]: 2.11 h
Kd [2]: 64 pM
koff [2]: 7.55e-05 s⁻¹
kon [2]: 1.18e+06 M⁻¹ s⁻¹
t½ [2]: 2.55 h

B6: mAb14247 (antibody, V domains shown)
VH: QITLKESGPTLVKPTQTLTLTCTFSGFSLSTSAVGVGWIRQPPGKALEWLALIYWDDDKRYSPSLKSRLTITKDTSKNQLVLTMTNVDPVDTATYYCAHHTIQLIFDYWGQGTLVTVSS
VL: QSALTQPASVSGSPGQSITISCTATSSDVGNYNYVSWYQQHPGKAPKLMIYEVSNRPSGVSNRFSGSKSGNTASLTISGLQAEDEADYYCSSYTSSSTPLVFGGGTKLTVLG
Kd [1]: 127 pM
koff [1]: 0.00015 s⁻¹
kon [1]: 1.18e+06 M⁻¹ s⁻¹
t½ [1]: 1.28 h
Kd [2]: 131 pM
koff [2]: 0.000156 s⁻¹
kon [2]: 1.19e+06 M⁻¹ s⁻¹
t½ [2]: 1.23 h
